Laboratory results as given in patent publication US20180094275A1 (AGRESEARCH, published 2018).

Columns and labels:
[1] = target: T1, Y2H NINJA-AD (NINJA fused to GAL4 activation domain) (Arabidopsis thaliana); assay: yeast two-hybrid
T1 construct: Prey fusion; also called pDEST22-NINJA
T1 chain: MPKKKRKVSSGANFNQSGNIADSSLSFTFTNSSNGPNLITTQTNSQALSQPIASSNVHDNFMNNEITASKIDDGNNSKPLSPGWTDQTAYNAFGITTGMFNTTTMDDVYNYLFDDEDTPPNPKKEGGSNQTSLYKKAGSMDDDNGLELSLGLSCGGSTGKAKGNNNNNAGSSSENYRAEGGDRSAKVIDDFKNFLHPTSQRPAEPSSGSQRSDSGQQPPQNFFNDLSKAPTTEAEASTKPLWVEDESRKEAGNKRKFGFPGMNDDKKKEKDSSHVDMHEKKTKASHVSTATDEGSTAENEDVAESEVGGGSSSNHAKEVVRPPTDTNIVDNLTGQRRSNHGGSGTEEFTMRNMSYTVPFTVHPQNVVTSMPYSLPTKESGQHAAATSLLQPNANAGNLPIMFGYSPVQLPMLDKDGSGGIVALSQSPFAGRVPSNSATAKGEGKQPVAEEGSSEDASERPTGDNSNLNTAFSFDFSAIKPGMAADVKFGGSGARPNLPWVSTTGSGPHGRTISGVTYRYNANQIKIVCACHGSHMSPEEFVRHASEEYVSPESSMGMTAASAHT

[2] = target: T2, Y2H BZR1-AD (BZR1 fused to GAL4 activation domain) (Arabidopsis thaliana); assay: yeast two-hybrid
T2 construct: Prey fusion; also called pDEST22-BZR1
T2 chain: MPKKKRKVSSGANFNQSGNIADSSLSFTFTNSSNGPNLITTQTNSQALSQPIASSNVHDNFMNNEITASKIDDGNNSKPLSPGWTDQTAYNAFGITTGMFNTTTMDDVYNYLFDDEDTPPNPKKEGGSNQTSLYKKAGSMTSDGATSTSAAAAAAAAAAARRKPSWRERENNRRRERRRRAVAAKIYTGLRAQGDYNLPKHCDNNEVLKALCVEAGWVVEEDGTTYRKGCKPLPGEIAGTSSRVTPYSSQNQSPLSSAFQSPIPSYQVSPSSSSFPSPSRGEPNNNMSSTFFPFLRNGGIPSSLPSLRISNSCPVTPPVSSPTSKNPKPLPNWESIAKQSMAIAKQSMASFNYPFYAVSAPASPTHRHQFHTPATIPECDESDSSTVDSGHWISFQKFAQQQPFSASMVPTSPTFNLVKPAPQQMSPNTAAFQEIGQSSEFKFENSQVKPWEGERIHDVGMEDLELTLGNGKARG

[3] = target: T3, Y2H PPD1-AD (PPD1 fused to GAL4 activation domain) (Arabidopsis thaliana); assay: yeast two-hybrid
T3 construct: Prey fusion; also called pDEST22-PPD1
T3 chain: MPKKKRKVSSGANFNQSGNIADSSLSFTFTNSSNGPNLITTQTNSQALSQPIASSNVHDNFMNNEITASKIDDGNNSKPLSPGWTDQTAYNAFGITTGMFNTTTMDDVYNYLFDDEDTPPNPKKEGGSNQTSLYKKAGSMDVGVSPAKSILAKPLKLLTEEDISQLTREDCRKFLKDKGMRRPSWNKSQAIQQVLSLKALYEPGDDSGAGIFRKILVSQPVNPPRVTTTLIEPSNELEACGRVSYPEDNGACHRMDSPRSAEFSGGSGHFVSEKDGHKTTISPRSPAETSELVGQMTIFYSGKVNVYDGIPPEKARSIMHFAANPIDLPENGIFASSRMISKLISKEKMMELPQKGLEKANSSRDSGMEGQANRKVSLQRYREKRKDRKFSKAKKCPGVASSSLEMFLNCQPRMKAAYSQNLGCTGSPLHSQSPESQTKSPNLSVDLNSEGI

[4] = target: T2, Y2H BZR1-AD (BZR1 fused to GAL4 …); assay: yeast two-hybrid (ProQuest, MaV203)
[5] = target: T4, Y2H RGA1-AD (DELLA protein RGA1 fused to GAL4 activation domain); assay: yeast two-hybrid, PPD1-DBD as bait, selective medium with 15 mM 3AT
T4 construct: Prey fusion tested against PPD1-DBD as bait; also called DELLA (RGA1)
T4 chain: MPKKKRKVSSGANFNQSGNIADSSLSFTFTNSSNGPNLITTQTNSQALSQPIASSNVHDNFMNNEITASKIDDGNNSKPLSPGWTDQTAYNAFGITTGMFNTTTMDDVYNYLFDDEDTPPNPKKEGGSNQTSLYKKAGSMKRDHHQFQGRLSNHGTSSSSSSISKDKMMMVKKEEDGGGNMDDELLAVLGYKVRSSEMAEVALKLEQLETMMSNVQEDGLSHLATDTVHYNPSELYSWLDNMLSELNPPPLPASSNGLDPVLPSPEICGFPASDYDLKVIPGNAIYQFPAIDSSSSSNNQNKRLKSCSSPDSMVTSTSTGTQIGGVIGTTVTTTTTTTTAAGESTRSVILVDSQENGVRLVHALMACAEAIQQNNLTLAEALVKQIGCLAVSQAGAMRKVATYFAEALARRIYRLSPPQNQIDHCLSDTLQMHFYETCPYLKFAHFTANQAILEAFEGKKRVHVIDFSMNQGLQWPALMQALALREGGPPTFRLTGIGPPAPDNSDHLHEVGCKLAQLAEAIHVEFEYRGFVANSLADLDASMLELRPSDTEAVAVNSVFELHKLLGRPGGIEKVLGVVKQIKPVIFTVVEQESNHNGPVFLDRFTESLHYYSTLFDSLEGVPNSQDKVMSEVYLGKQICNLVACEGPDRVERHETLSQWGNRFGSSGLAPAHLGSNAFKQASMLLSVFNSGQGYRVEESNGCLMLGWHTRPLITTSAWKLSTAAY

Binder | binding result [1] | binding result [2] | binding result [3] | binding result [4] | binding result [5]
Y2H TPL-DBD (TOPLESS fused to GAL4 DNA binding domain) (other, Bait fusion; also called pDEST32-TPL) MKLLSSIEEACNICRLKKLKCSKEKPKCAKCLKNNWECRYSPKTKRSPLTRAHLTEVESRLERLEQLFLLIFPRENLNMILKMDSLQDIKALLTGLFVQDNVNKDAVTDRLASVETDMPLTLRQHRISATSSSEESSNKGQRQLTVSSRSNQTSLYKKAGSMSSLSRELVFLILQFLDEEKFKETVHKLEQESGFFFNMKYFEDEVHNGNWDEVEKYLSGFTKVDDNRYSMKIFFEIRKQKYLEALDKHDRPKAVDILVKDLKVFSTFNEELFKEITQLLTLENFRENEQLSKYGDTKSARAIMLVELKKLIEANPLFRDKLQFPTLRNSRLRTLINQSLNWQHQLCKNPRPNPDIKTLFVDHSCGPPNGARAPSPVNNPLLGGIPKAGGFPPLGAHGPFQPTASPVPTPLAGWMSSPSSVPHPAVSAGAIALGGPSIPAALKHPRTPPTNASLDYPSADSEHVSKRTRPMGISDEVNLGVNMLPMSFSGQAHGHSPAFKAPDDLPKTVARTLSQGSSPMSMDFHPIKQTLLLVGTNVGDIGLWEVGSRERLVQKTFKVWDLSKCSMPLQAALVKEPVVSVNRVIWSPDGSLFGVAYSRHIVQLYSYHGGEDMRQHLEIDAHVGGVNDISFSTPNKQLCVITCGDDKTIKVWDAATGVKRHTFEGHEAPVYSVCPHYKENIQFIFSTALDGKIKAWLYDNMGSRVDYDAPGRWCTTMAYSADGTRLFSCGTSKDGESFIVEWNESEGAVKRTYQGFHKRSLGVVQFDTTKNRYLAAGDDFSIKFWDMDAVQLLTAIDGDGGLQASPRIRFNKEGSLLAVSGNENVIKIMANSDGLRLLHTFENISSESSKPAINSIAAAAAAAATSAGHADRSANVVSIQGMNGDSRNMVDVKPVITEESNDKSKIWKLTEVSEPSQCRSLRLPENLRVAKISRLIFTNSGNAILALASNAIHLLWKWQRNERNATGKATASLPPQQWQPASGILMTNDVAETNPEEAVPCFALSKNDSYVMSASGGKISLFNMMTFKTMATFMPPPPAATFLAFHPQDNNIIAIGMDDSTIQIYNVRVDEVKSKLKGHSKRITGLAFSNVLNVLVSSGADAQLCVWNTDGWEKQRSKVLPLPQGRPNSAPSDTRVQFHQDQAHFLVVHETQLAIYETTKLECMKQWAVRESLAPITHATFSCDSQLVYASFMDATVCVFSSANLRLRCRVNPSAYLPASLSNSNVHPLVIAAHPQEPNMFAVGLSDGGVHIFEPLESEGKWGVAPPAENGSASGAPTAPSVGASASDQPQR | binds | binds |  |  | 
Y2H PPD1-DBD (PPD1 fused to GAL4 DNA binding domain) (other, Bait fusion expressed in yeast MaV203; also called pDEST32-PPD1; PPD1 bait) MKLLSSIEEACNICRLKKLKCSKEKPKCAKCLKNNWECRYSPKTKRSPLTRAHLTEVESRLERLEQLFLLIFPRENLNMILKMDSLQDIKALLTGLFVQDNVNKDAVTDRLASVETDMPLTLRQHRISATSSSEESSNKGQRQLTVSSRSNQTSLYKKAGSMDVGVSPAKSILAKPLKLLTEEDISQLTREDCRKFLKDKGMRRPSWNKSQAIQQVLSLKALYEPGDDSGAGIFRKILVSQPVNPPRVTTTLIEPSNELEACGRVSYPEDNGACHRMDSPRSAEFSGGSGHFVSEKDGHKTTISPRSPAETSELVGQMTIFYSGKVNVYDGIPPEKARSIMHFAANPIDLPENGIFASSRMISKLISKEKMMELPQKGLEKANSSRDSGMEGQANRKVSLQRYREKRKDRKFSKAKKCPGVASSSLEMFLNCQPRMKAAYSQNLGCTGSPLHSQSPESQTKSPNLSVDLNSEGI | binds |  | binds | no binding | binds
